Laboratory results taken from paper PMC1277818, “Substrate specificity analysis of protein kinase complex Dbf2-Mob1 by peptide library and proteome array screening” (BMC Biochemistry, 2005).

Tests used:
FHHDbf2-H6Mob1TM9 [1] = target: T1, FHHDbf2-H6Mob1TM9 (Saccharomyces cerevisiae, UniProt P22204+P40484); test: Kinase assays of immunoprecipitated TAP-tagged proteins; type: biochemical; conditions: protein on IgG sepharose beads, ~13 ng Dbf2, 2 μCi [γ-32P]ATP, 30 min, room temperature, SDS-PAGE, autoradiography
T1 construct: made in house; host or cells: Hi5 insect cells (baculovirus)
T1 sequence (P22204 1-572): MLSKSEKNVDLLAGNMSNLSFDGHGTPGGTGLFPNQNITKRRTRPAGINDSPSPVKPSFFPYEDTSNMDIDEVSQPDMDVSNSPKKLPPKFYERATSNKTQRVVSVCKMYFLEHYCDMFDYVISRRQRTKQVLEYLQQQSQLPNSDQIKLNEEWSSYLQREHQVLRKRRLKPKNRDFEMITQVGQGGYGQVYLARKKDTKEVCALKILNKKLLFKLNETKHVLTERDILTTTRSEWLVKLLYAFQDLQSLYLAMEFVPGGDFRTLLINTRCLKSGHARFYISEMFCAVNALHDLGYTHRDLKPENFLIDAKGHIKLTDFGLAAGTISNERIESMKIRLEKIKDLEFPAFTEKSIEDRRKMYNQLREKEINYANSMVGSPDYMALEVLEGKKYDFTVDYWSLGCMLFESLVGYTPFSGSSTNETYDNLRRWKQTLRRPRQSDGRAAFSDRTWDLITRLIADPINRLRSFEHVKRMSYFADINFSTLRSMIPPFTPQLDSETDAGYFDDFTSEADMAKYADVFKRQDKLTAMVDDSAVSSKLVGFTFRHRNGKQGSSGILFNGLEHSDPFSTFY
T1 sequence (P40484 1-314 partner): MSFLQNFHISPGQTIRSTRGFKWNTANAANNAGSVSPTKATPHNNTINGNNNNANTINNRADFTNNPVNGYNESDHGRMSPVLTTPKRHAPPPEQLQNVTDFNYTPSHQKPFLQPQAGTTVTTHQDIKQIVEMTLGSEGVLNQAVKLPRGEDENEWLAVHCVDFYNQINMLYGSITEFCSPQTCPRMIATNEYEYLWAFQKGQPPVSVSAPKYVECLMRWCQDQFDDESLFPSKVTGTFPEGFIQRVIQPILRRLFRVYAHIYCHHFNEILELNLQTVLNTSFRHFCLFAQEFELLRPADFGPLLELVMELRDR
Description: TAP-tagged strains were obtained for 22 of the 25 top candidates. TAP-tagged alleles for three of the genes (YJL108C, YBR285W, and YBR108W) were not available, and therefore these candidates were not subjected to further analysis. Asynchronous cultures of the 22 TAP-tagged strains were grown and the TAP-tagged proteins immunoprecipitated with IgG sepharose and analyzed by Western blotting (Figure 2A). Candidates were determined to be phosphorylated if a radioactive signal was detected at the molecular weight predicted for the tagged protein. […] The 17 TAP-tagged proteins that were expressed and purified were used in Dbf2-Mob1 kinase assays (Figure 2B). Of the 17, 10 were determined to be phosphorylated.
The TAP-tagged proteins were immunoprecipitated with IgG sepharose beads from asynchronous cultures, fractionated on SDS-PAGE and immunoblotted with anti-TAP. […] (B) The TAP-tagged proteins expressed in (A) were treated with ^FHHDbf2-^H6Mob1^TM9 in the presence of [γ-^32P]ATP, fractionated on SDS-PAGE and detected by autoradiography.
Yeast strains containing TAP-tagged genes (Open Biosystems) were grown to OD600 ~2.0 in 25 mL of YPD. […] Immunoprecipitated TAP-tagged proteins were analyzed by SDS-PAGE and detected by Western blotting using the primary antibody anti-TAP (Open Biosystems) followed by goat anti-rabbit horseradish peroxidase (HRP)-conjugate (Bio-Rad), and ECL. […]

[2] = test system: kinase-inactive FHHDbf2(N305A)-H6Mob1TM9; test: Kinase assays of immunoprecipitated TAP-tagged proteins with the kinase-inactive complex; type: biochemical, Saccharomyces cerevisiae; conditions: protein on IgG sepharose beads, ~13 ng Dbf2, 2 μCi [γ-32P]ATP, 30 min, room temperature, SDS-PAGE, autoradiography
FHHDbf2-H6Mob1TM9 [3] = target: T1, FHHDbf2-H6Mob1TM9; test: Yeast proteome chip assay; type: biochemical; conditions: [γ-33P]ATP, chips in duplicate
Method in brief: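 GST-tagged yeast proteins (~4,400 strains) spotted on proteome microarrays, probed in duplicate with FHHDbf2-H6Mob1TM9 in DKB plus [γ-33P]ATP; kinase-dead Dbf2(N305A) and kinase-free buffer served as controls. Positives: 3 of 4 spots ≥2 SD above background, fourth ≥1.5 SD.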

[4] = Table 3, GST fusion proteins on proteome chip, computer analysis
[5] = Table 4, the 25 proteins with highest signal relative to protein amount

B1: YDR226W: GST fusion yeast protein on proteome chip (protein, UniProt P07170 3-222, looked up)
Adenylate kinase: SSESIRMVLIGPPGAGKGTQAPNLQERFHAAHLATGDMLRSQIAKGTQLGLEAKKIMDQGGLVSDDIMVNMIKDELTNNPACKNGFILDGFPRTIPQAEKLDQMLKEQGTPLEKAIELKVDDELLVARITGRLIHPASGRSYHKIFNPPKEDMKDDVTGEALVQRSDDNADALKKRLAAYHAQTEPIVDFYKKTGIWAGVDASQPPATVWADILNKLGKD
modifications: GST tag
notes: GST fusion yeast protein on proteome chip
- Phosphorylation of TAP-tagged protein by Dbf2-Mob1 (FHHDbf2-H6Mob1TM9 [1]): phosphorylated by Dbf2-Mob1
- Phosphorylation of TAP-tagged protein by kinase-inactive Dbf2(N305A)-Mob1 [2]: not its kinase inactive form
- Slide Signal (after normalization) (FHHDbf2-H6Mob1TM9 [3]; [4]): 3.1016
- Slide Signal (after normalization) (FHHDbf2-H6Mob1TM9 [3]; [5]): 3.1016

B2: YOR362C: GST fusion yeast protein on proteome chip (protein, UniProt P21242 2-288, looked up)
Probable proteasome subunit …: TSIGTGYDLSNSVFSPDGRNFQVEYAVKAVENGTTSIGIKCNDGVVFAVEKLITSKLLVPQKNVKIQVVDRHIGCVYSGLIPDGRHLVNRGREEAASFKKLYKTPIPIPAFADRLGQYVQAHTLYNSVRPFGVSTIFGGVDKNGAHLYMLEPSGSYWGYKGAATGKGRQSAKAELEKLVDHHPEGLSAREAVKQAAKIIYLAHEDNKEKDFELEISWCSLSETNGLHKFVKGDLLQEAIDFAQKEINGDDDEDEDDSDNVMSSDDENAPVATNANATTDQEGDIHLE
modifications: GST tag
notes: as for B1
- Phosphorylation of TAP-tagged protein by Dbf2-Mob1 (FHHDbf2-H6Mob1TM9 [1]): phosphorylated by Dbf2-Mob1
- Phosphorylation of TAP-tagged protein by kinase-inactive Dbf2(N305A)-Mob1 [2]: not its kinase inactive form
- Slide Signal (after normalization) (FHHDbf2-H6Mob1TM9 [3]; [4]): 0.9895
- Slide Signal (after normalization) (FHHDbf2-H6Mob1TM9 [3]; [5]): 0.9895
